Data reported in the supplement of paper PMC9112550, “Optimization of the antimicrobial peptide Bac7 by deep mutational scanning” (BMC Biology, 2022).

System: Escherichia coli TOP10
Experiment: shrunken log2 fold change of peptide-encoding DNA abundance (4.5 h post-induction vs induction); higher = less antimicrobial activity (less host growth inhibition)
Settings: time post-induction: 4.5 h; library: site-saturation at positions 5, 18, 19, 20
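Note: peptides expressed intracellularly from a pBAD plasmid library in pooled LB shake-flask culture, induced with 0.3% L-arabinose, DNA abundance read by NGS, three biological replicates, DESeq2 with apeglm shrinkage.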

| Sequence | shrunken log2 fold change |
| --- | --- |
| RRIRARPPRLPRPRPRPWCGPRP | 0.0572 |
| RRIRFRPPRLPRPRPRPEYLPRP | -0.203 |
| RRIRYRPPRLPRPRPRPNLKPRP | -0.732 |
| RRIRTRPPRLPRPRPRPPNAPRP | 0.535 |
| RRIRSRPPRLPRPRPRPQEEPRP | -0.0262 |
| RRIRLRPPRLPRPRPRPVDQPRP | 0.194 |
| RRIRSRPPRLPRPRPRPNPMPRP | -0.111 |
| RRIRARPPRLPRPRPRPREGPRP | 1.1 |
| RRIRHRPPRLPRPRPRPIECPRP | 0.0039 |
| RRIRARPPRLPRPRPRPLYRPRP | -0.28 |
| RRIRYRPPRLPRPRPRPYHHPRP | -0.0688 |
| RRIRRRPPRLPRPRPRPQSPPRP | 0.281 |
| RRIRKRPPRLPRPRPRPFGIPRP | -0.00674 |
| RRIRWRPPRLPRPRPRPYKAPRP | 0.0233 |
| RRIRTRPPRLPRPRPRPSKAPRP | -0.0453 |
| RRIRPRPPRLPRPRPRPGTYPRP | -0.147 |
| RRIRMRPPRLPRPRPRPHTFPRP | -0.384 |
| RRIRLRPPRLPRPRPRPPPQPRP | 1.12 |
| RRIRIRPPRLPRPRPRPISDPRP | -0.0354 |
| RRIRRRPPRLPRPRPRPVYEPRP | 0.15 |
| RRIRLRPPRLPRPRPRPLRFPRP | 0.477 |
| RRIRQRPPRLPRPRPRPNNIPRP | -0.732 |
| RRIRIRPPRLPRPRPRPSSHPRP | -1.02 |
| RRIRRRPPRLPRPRPRPFIPPRP | -0.506 |
| RRIRIRPPRLPRPRPRPVGRPRP | 0.0883 |

| Sequence | shrunken log2 fold change |
| --- | --- |
| RRIRARPPRLPRPRPRPNQKPRP | 0.0427 |
| RRIRMRPPRLPRPRPRPFHTPRP | 0.0481 |
| RRIRWRPPRLPRPRPRPCCLPRP | 0.00932 |
| RRIRVRPPRLPRPRPRPWGQPRP | -0.191 |
| RRIRSRPPRLPRPRPRPIFCPRP | -0.0166 |
| RRIRFRPPRLPRPRPRPYVKPRP | -0.787 |
| RRIRMRPPRLPRPRPRPRDEPRP | 1.43 |
| RRIRYRPPRLPRPRPRPASSPRP | -0.0244 |
| RRIRERPPRLPRPRPRPHNFPRP | 0.0533 |
| RRIRERPPRLPRPRPRPTIEPRP | -0.0577 |
| RRIRWRPPRLPRPRPRPKRKPRP | 0.502 |
| RRIRPRPPRLPRPRPRPGRRPRP | 0.123 |
| RRIRERPPRLPRPRPRPNPLPRP | -0.0696 |
| RRIRDRPPRLPRPRPRPDPIPRP | 0.278 |
| RRIRMRPPRLPRPRPRPSMNPRP | -0.287 |
| RRIRNRPPRLPRPRPRPYAKPRP | -0.257 |
| RRIRSRPPRLPRPRPRPAMDPRP | 0.0404 |
| RRIRPRPPRLPRPRPRPNRDPRP | -0.271 |
| RRIRVRPPRLPRPRPRPLIPPRP | -0.406 |
| RRIRIRPPRLPRPRPRPELPPRP | 0.0135 |
| RRIRWRPPRLPRPRPRPYIMPRP | -0.116 |
| RRIRQRPPRLPRPRPRPLLTPRP | -0.235 |
| RRIRHRPPRLPRPRPRPGKMPRP | -0.423 |
| RRIRMRPPRLPRPRPRPVLPPRP | -0.0643 |
| RRIRDRPPRLPRPRPRPSKPPRP | -0.0858 |

| Sequence | shrunken log2 fold change |
| --- | --- |
| RRIRQRPPRLPRPRPRPPVEPRP | 0.265 |
| RRIRQRPPRLPRPRPRPQVGPRP | 0.331 |
| RRIRRRPPRLPRPRPRPVKPPRP | 0.265 |
| RRIRDRPPRLPRPRPRPCRDPRP | -0.106 |
| RRIRFRPPRLPRPRPRPHYFPRP | -0.161 |
| RRIRKRPPRLPRPRPRPKESPRP | -0.0162 |
| RRIRDRPPRLPRPRPRPWATPRP | 0.0691 |
| RRIRHRPPRLPRPRPRPRWMPRP | -0.209 |
| RRIRKRPPRLPRPRPRPIVQPRP | 0.000772 |
| RRIRLRPPRLPRPRPRPPGDPRP | 0.834 |
| RRIRGRPPRLPRPRPRPGYNPRP | 0.0217 |
| RRIRIRPPRLPRPRPRPTSLPRP | -0.14 |
| RRIRIRPPRLPRPRPRPRYKPRP | -0.593 |
| RRIRQRPPRLPRPRPRPQLNPRP | -0.367 |
| RRIRLRPPRLPRPRPRPYDTPRP | -0.925 |
| RRIRHRPPRLPRPRPRPSREPRP | 0.0138 |
| RRIRPRPPRLPRPRPRPPCNPRP | -0.0234 |
| RRIRSRPPRLPRPRPRPTQSPRP | 0.449 |
| RRIRDRPPRLPRPRPRPWADPRP | -0.00486 |
| RRIRSRPPRLPRPRPRPCESPRP | -0.0178 |
| RRIRARPPRLPRPRPRPDDNPRP | 0.248 |
| RRIRMRPPRLPRPRPRPAGMPRP | 0.655 |
| RRIRMRPPRLPRPRPRPYYCPRP | -0.603 |
| RRIRERPPRLPRPRPRPATLPRP | -0.274 |
| RRIRERPPRLPRPRPRPKLMPRP | 0.0215 |

| Sequence | shrunken log2 fold change |
| --- | --- |
| RRIRARPPRLPRPRPRPFQEPRP | 0.127 |
| RRIRYRPPRLPRPRPRPAQYPRP | -0.562 |
| RRIRMRPPRLPRPRPRPQYLPRP | -0.0275 |
| RRIRHRPPRLPRPRPRPHLTPRP | -0.0621 |
| RRIRPRPPRLPRPRPRPLPYPRP | -0.31 |
| RRIRNRPPRLPRPRPRPTSWPRP | -0.228 |
| RRIRMRPPRLPRPRPRPTAVPRP | 1.64 |
| RRIRQRPPRLPRPRPRPGLNPRP | -0.129 |
| RRIRWRPPRLPRPRPRPEMQPRP | 1.12 |
| RRIRERPPRLPRPRPRPITHPRP | -0.527 |
| RRIRYRPPRLPRPRPRPPCNPRP | -0.0594 |
| RRIRWRPPRLPRPRPRPQHKPRP | -0.0725 |
| RRIRDRPPRLPRPRPRPLPNPRP | -0.234 |
| RRIRMRPPRLPRPRPRPKWAPRP | 0.0251 |
| RRIRKRPPRLPRPRPRPKRYPRP | 0.032 |
| RRIRVRPPRLPRPRPRPCQFPRP | 0.143 |
| RRIRNRPPRLPRPRPRPGMKPRP | -0.272 |
| RRIRRRPPRLPRPRPRPGFQPRP | 0.301 |
| RRIRCRPPRLPRPRPRPAVWPRP | 0.617 |
| RRIRFRPPRLPRPRPRPRSVPRP | -0.00149 |
| RRIRSRPPRLPRPRPRPVWDPRP | -0.143 |
| RRIRWRPPRLPRPRPRPNGMPRP | -0.0595 |
| RRIRLRPPRLPRPRPRPETFPRP | 0.0211 |
| RRIRIRPPRLPRPRPRPRIDPRP | -0.0642 |
| RRIRWRPPRLPRPRPRPGKCPRP | 0.0425 |

| Sequence | shrunken log2 fold change |
| --- | --- |
| RRIRDRPPRLPRPRPRPRPQPRP | 1.8 |
| RRIRTRPPRLPRPRPRPDTVPRP | -0.0391 |
| RRIRTRPPRLPRPRPRPHINPRP | -0.454 |
| RRIRKRPPRLPRPRPRPLRTPRP | 0.727 |
| RRIRHRPPRLPRPRPRPVSAPRP | 0.0852 |
| RRIRSRPPRLPRPRPRPRMDPRP | -0.291 |
| RRIRQRPPRLPRPRPRPMIKPRP | -0.318 |
| RRIRQRPPRLPRPRPRPNPLPRP | -0.0379 |
| RRIRRRPPRLPRPRPRPIHKPRP | 0.27 |
| RRIRARPPRLPRPRPRPRNKPRP | 0.271 |
| RRIRYRPPRLPRPRPRPHKHPRP | -0.91 |
| RRIRIRPPRLPRPRPRPQKSPRP | -0.403 |
| RRIRTRPPRLPRPRPRPEPIPRP | 0.226 |
| RRIRGRPPRLPRPRPRPMEEPRP | 0.48 |
| RRIRYRPPRLPRPRPRPHHHPRP | -1.09 |
| RRIRYRPPRLPRPRPRPCMTPRP | -0.34 |
| RRIRKRPPRLPRPRPRPLQPPRP | 0.349 |
| RRIRPRPPRLPRPRPRPMFLPRP | -0.269 |
| RRIRDRPPRLPRPRPRPNPRPRP | 0.0975 |
| RRIRIRPPRLPRPRPRPTRTPRP | 0.22 |
| RRIRMRPPRLPRPRPRPDTDPRP | 0.0472 |
| RRIRMRPPRLPRPRPRPCVCPRP | -0.00811 |
| RRIRVRPPRLPRPRPRPCQKPRP | -0.0265 |
| RRIRERPPRLPRPRPRPVVVPRP | -0.112 |
| RRIRYRPPRLPRPRPRPCDFPRP | -0.227 |

| Sequence | shrunken log2 fold change |
| --- | --- |
| RRIRKRPPRLPRPRPRPLQCPRP | 0.101 |
| RRIRVRPPRLPRPRPRPTYLPRP | 0.00624 |
| RRIRWRPPRLPRPRPRPDWNPRP | 0.0393 |
| RRIRDRPPRLPRPRPRPQNTPRP | -0.605 |
| RRIRNRPPRLPRPRPRPSVCPRP | -0.174 |
| RRIRQRPPRLPRPRPRPQNGPRP | 0.111 |
| RRIRHRPPRLPRPRPRPWRPPRP | 0.29 |
| RRIRQRPPRLPRPRPRPRTRPRP | 0.225 |
| RRIRSRPPRLPRPRPRPPLMPRP | 0.129 |
| RRIRDRPPRLPRPRPRPKQAPRP | 0.0366 |
| RRIRARPPRLPRPRPRPGNFPRP | -0.226 |
| RRIRERPPRLPRPRPRPISVPRP | -0.137 |
| RRIRGRPPRLPRPRPRPQCDPRP | 0.479 |
| RRIRNRPPRLPRPRPRPKAQPRP | 0.0241 |
| RRIRMRPPRLPRPRPRPGVVPRP | 0.761 |
| RRIRQRPPRLPRPRPRPEAEPRP | 0.302 |
| RRIRRRPPRLPRPRPRPTHAPRP | 1.13 |
| RRIRTRPPRLPRPRPRPQACPRP | -0.0237 |
| RRIRARPPRLPRPRPRPSLCPRP | 0.276 |
| RRIRSRPPRLPRPRPRPERKPRP | -0.0872 |
| RRIRHRPPRLPRPRPRPGLWPRP | 0.0565 |
| RRIRIRPPRLPRPRPRPAYGPRP | -0.253 |
| RRIRCRPPRLPRPRPRPWEYPRP | 0.0155 |
| RRIRNRPPRLPRPRPRPESSPRP | -0.00568 |
| RRIRLRPPRLPRPRPRPMMTPRP | -0.042 |
